Reference: the supplement of paper PMC10065799, “High-throughput profiling of sequence recognition by tyrosine kinases and SH2 domains using bacterial peptide display” (eLife, 2023)

Assays:
Jak2 = Jak2 (UniProt O60674); assay: phosphorylation enrichment, bacterial display (enrichment ratio); higher = better substrate or ligand; peptides without Tyr show the background
Fer (mouse) = assay: as above
EPHB2 = EPHB2 (UniProt P29323); assay: as above
FGFR1 = FGFR1 (UniProt P11362); assay: as above
EPHB1 = EPHB1 (UniProt P54762); assay: as above
Fes = Fes (UniProt P07332); assay: as above
c-Src = assay: as above
Fyn = Fyn (UniProt P06241); assay: as above
FGFR3 = FGFR3 (UniProt P22607); assay: as above
c-Abl (mouse) = assay: as above
Hck = Hck (UniProt P08631); assay: as above
MERTK = MERTK (UniProt Q12866); assay: as above
AncSZ = assay: as above
SHP2-C SH2 = assay: SH2 binding enrichment of the phosphorylated peptide, bacterial display (enrichment ratio); higher = better substrate or ligand; peptides without Tyr show the background
Grb2 SH2 = Grb2 SH2 (UniProt P62993); assay: as above
c-Src SH2 = assay: as above
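Throughout, for SH2 binding enrichment of the phosphorylated peptide, bacterial display: peptide library displayed on the E. coli surface as eCPX fusions, selected cells deep-sequenced, score is each peptide's frequency after selection divided by its frequency in the input.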
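Throughout, for phosphorylation enrichment, bacterial display: 11-residue human phosphosite peptides and single-mutation variants displayed on the E. coli surface, counted by deep sequencing, each peptide's frequency after selection divided by its frequency in the unselected input library; frequency after pTyr selection over input frequency; kinase dosed for 20-30% of maximal phosphorylation in three min.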

Sequence of EPHB1 (P54762 whole entry, looked up): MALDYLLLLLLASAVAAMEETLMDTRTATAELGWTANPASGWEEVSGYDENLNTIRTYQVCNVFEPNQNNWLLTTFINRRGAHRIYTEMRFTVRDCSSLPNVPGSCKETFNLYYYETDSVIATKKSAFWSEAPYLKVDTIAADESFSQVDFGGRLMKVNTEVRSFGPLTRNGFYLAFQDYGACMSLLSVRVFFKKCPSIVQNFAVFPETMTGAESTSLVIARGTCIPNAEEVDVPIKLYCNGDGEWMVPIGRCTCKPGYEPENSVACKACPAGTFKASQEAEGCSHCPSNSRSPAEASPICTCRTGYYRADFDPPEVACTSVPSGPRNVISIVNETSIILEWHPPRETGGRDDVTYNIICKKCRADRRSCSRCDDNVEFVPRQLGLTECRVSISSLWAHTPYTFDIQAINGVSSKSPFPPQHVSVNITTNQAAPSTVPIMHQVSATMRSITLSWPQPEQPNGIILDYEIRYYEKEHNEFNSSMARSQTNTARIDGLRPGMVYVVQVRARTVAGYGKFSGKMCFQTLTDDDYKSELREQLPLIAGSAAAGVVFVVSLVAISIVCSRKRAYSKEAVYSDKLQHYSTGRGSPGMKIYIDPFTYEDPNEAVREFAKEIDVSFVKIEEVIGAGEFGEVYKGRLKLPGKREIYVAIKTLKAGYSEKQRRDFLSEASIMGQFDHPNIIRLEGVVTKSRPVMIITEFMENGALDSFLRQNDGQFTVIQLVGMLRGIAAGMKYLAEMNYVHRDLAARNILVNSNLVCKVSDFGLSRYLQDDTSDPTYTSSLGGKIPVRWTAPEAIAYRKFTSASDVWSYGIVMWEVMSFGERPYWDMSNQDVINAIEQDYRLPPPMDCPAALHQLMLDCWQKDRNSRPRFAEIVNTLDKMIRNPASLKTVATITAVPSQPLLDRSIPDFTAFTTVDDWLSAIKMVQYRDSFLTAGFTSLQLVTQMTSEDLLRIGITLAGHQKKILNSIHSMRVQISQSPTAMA
Sequence of EPHB2 (P29323 whole entry, looked up): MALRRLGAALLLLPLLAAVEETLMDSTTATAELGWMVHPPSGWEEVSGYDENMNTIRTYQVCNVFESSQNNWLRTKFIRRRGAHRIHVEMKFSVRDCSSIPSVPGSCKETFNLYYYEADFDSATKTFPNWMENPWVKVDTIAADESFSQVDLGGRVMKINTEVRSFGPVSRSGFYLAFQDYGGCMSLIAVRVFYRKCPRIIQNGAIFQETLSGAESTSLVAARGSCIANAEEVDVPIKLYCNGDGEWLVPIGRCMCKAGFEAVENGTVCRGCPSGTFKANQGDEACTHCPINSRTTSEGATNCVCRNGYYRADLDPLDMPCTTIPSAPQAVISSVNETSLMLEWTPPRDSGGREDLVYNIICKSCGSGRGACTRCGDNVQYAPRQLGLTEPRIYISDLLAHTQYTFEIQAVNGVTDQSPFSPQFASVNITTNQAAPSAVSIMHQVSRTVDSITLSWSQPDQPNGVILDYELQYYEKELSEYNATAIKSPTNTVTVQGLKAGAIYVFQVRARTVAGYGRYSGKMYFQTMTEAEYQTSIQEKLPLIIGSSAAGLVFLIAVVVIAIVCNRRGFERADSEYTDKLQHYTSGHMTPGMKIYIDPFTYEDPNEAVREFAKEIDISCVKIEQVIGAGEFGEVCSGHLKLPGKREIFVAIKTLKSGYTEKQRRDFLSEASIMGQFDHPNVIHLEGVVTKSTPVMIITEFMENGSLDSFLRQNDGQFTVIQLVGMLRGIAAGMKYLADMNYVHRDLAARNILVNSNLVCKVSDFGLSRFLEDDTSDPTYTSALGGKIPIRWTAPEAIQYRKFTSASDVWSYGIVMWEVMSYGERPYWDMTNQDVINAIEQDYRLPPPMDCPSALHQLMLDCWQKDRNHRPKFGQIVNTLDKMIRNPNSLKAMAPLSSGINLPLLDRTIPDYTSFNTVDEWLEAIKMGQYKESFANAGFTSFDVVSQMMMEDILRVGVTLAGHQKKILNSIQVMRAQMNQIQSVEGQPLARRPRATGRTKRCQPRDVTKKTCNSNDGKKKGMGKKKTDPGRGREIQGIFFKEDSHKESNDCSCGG
Sequence of Jak2 (O60674 whole entry, looked up): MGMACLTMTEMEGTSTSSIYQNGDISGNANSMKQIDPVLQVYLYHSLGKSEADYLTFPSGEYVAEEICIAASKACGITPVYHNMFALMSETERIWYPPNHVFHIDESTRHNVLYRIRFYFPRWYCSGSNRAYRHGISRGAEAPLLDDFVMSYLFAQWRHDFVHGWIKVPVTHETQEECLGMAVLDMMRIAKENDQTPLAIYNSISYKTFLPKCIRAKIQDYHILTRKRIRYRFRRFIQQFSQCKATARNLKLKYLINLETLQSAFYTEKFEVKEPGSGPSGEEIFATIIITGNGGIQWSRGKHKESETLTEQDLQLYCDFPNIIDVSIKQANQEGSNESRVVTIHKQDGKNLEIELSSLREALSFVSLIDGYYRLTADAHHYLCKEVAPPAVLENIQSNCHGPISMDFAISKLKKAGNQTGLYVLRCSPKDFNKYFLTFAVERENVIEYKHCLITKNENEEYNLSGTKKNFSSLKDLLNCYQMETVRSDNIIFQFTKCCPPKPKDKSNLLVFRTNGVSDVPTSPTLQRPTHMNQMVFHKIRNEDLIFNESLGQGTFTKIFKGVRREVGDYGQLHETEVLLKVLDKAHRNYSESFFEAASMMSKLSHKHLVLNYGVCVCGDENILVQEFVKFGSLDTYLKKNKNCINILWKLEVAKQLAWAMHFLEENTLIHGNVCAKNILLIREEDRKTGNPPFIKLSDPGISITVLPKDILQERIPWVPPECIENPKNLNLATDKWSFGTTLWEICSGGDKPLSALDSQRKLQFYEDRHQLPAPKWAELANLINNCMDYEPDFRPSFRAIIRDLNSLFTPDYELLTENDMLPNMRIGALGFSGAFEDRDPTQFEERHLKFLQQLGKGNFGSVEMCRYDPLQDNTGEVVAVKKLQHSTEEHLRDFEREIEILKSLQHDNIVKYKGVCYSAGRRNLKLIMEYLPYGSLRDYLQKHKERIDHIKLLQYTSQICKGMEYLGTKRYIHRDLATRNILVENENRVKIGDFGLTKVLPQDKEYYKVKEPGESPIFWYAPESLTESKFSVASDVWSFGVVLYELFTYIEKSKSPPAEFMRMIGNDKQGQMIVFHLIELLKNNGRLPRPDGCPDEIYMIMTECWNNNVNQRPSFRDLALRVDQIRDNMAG
Sequence of Fyn (P06241 whole entry, looked up): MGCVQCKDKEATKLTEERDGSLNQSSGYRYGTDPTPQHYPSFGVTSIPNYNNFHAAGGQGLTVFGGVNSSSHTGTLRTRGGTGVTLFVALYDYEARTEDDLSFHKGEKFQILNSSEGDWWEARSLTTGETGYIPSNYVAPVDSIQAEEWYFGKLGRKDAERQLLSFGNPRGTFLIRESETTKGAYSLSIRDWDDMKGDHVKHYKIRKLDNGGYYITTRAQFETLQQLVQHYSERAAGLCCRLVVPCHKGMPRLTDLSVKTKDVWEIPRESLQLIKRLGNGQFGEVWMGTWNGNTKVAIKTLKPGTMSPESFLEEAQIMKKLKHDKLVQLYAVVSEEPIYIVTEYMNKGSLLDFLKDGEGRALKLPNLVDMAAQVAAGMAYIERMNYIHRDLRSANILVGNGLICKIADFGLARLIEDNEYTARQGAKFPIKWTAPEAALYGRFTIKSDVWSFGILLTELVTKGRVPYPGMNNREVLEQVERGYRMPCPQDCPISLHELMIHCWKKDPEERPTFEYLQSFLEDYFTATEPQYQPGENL
Sequence of MERTK (Q12866 whole entry, looked up): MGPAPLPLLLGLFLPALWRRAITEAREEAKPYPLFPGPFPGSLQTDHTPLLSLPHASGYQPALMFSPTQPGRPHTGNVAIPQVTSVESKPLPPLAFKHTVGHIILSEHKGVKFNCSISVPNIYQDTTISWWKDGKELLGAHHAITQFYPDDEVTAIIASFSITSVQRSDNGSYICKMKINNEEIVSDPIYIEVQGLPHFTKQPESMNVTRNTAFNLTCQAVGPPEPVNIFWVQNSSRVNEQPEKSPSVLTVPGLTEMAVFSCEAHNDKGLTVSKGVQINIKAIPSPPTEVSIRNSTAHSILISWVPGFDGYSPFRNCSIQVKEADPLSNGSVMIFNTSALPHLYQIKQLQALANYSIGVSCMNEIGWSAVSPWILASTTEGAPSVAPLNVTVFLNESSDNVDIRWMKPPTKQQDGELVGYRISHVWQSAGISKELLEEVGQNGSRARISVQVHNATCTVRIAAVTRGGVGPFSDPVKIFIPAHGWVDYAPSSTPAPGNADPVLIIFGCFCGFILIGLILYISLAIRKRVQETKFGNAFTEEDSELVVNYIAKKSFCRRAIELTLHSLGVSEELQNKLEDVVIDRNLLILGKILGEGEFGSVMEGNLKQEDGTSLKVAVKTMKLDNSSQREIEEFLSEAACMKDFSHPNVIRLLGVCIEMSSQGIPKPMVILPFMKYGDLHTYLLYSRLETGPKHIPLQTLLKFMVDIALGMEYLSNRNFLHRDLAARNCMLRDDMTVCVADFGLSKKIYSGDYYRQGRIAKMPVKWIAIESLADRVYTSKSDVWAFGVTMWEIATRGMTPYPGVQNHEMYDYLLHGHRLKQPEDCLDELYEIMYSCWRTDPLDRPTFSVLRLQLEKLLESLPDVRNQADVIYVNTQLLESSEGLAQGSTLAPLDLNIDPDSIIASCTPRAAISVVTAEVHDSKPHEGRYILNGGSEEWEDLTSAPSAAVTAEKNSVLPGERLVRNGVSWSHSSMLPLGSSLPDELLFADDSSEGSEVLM
Sequence of Grb2 SH2 (P62993 whole entry, looked up): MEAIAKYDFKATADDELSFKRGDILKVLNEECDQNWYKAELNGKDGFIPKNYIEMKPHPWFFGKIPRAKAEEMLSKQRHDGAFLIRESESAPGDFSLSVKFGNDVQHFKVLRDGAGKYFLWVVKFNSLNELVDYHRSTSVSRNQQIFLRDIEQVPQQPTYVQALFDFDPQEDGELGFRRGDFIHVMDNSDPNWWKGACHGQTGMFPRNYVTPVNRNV

| Sequence | phosphorylation enrichment (Jak2) | phosphorylation enrichment (Fer (mouse)) | phosphorylation enrichment (EPHB2) | phosphorylation enrichment (FGFR1) | phosphorylation enrichment (EPHB1) | phosphorylation enrichment (Fes) | phosphorylation enrichment (c-Src) | phosphorylation enrichment (Fyn) | phosphorylation enrichment (FGFR3) | phosphorylation enrichment (c-Abl (mouse)) | phosphorylation enrichment (Hck) | phosphorylation enrichment (MERTK) | phosphorylation enrichment (AncSZ) | SH2 binding enrichment (SHP2-C SH2) | SH2 binding enrichment (Grb2 SH2) | SH2 binding enrichment (c-Src SH2) |
| --- | --- | --- | --- | --- | --- | --- | --- | --- | --- | --- | --- | --- | --- | --- | --- | --- |
| EGLKVYINGTL [ADGRD1_Y183_V184I] | 1.38 | 0.555 | 0.614 | 0.554 | 0.663 | 1.49 | 0.4 | 0.401 | 0.853 | 0.8 | 0.541 | 0.337 | 1.18 | 0.659 | 1.32 | 0.381 |
| LHSEAYLKYNE [PBRM1_Y1610_I1614N] | 0.744 | 0.311 | 0.45 | 0.409 | 0.393 | 0.757 | 0.586 | 0.35 | 0.585 | 1.25 | 0.395 | 0.397 | 0.751 | 0.862 | 0.955 | 0.497 |
| SDVNKYSTAFG [GJB3_Y16_G12D] | 0.451 | 0.462 | 0.387 | 0.348 | 0.467 | 0.67 | 0.361 | 0.42 | 0.459 | 0.509 | 0.386 | 0.393 | 0.521 | 0.553 | 0.777 | 0.617 |
| TRTDAYAVSSF | 1.08 | 0.405 | 0.464 | 0.567 | 0.383 | 0.657 | 0.443 | 0.419 | 0.534 | 0.645 | 0.357 | 0.388 | 0.78 | 0.525 | 0.729 | 0.837 |
| RFVTRYIFNRE [HLA-DQB1_Y62_YF] | 0.921 | 0.615 | 0.591 | 0.923 | 0.536 | 1.68 | 0.593 | 0.76 | 0.796 | 0.528 | 0.655 | 0.643 | 1.2 | 0.721 | 0.627 | 0.355 |
| ISMAGYSIPEL [EDAR_Y406_T403M] | 0.68 | 0.455 | 0.553 | 0.494 | 0.395 | 0.787 | 0.508 | 0.448 | 0.54 | 1.15 | 0.437 | 0.573 | 0.647 | 0.861 | 0.827 | 10.4 |
| VDTFWYKFLKR [EPM2A_Y86] | 1.05 | 0.525 | 0.629 | 0.553 | 0.657 | 1.18 | 0.371 | 0.406 | 0.716 | 0.78 | 0.467 | 0.432 | 1.21 | 1.04 | 0.957 | 0.602 |
| LGSNGCKKLLK [SEPSECS_Y334_Y334C] | 1.06 | 0.472 | 1.04 | 0.661 | 0.611 | 0.826 | 0.663 | 0.567 | 0.868 | 1.06 | 0.768 | 0.866 | 0.823 | 0.786 | 1.02 | 0.849 |
| REENGYNTYAS [FGF10_Y161_I156R] | 1.27 | 0.559 | 0.962 | 0.761 | 0.856 | 1.73 | 0.9 | 1.21 | 1.03 | 1.25 | 1.3 | 0.568 | 1.22 | 1.11 | 0.673 | 0.509 |
| SPGGDYAAMGA [ERBB3_Y1276_G1271S] | 0.708 | 0.456 | 0.901 | 0.705 | 1.52 | 0.861 | 0.445 | 0.484 | 0.609 | 0.622 | 0.455 | 0.476 | 0.7 | 0.487 | 0.749 | 1.03 |
| QRRLVYYEGGA [RYR1_Y245] | 0.682 | 0.536 | 0.606 | 0.497 | 0.402 | 1.11 | 0.583 | 0.369 | 0.602 | 0.728 | 0.421 | 1.15 | 0.788 | 0.803 | 1.17 | 1.06 |
| GLAELYEFQKK [CKAP5_Y1854_K1857Q_YF] | 0.58 | 0.656 | 0.564 | 0.539 | 0.59 | 0.857 | 0.937 | 0.64 | 0.94 | 0.428 | 1.23 | 0.526 | 0.973 | 0.473 | 0.666 | 0.795 |
| EPNSRYTFKLE [USH2A_Y3745_YF] | 0.76 | 0.397 | 0.448 | 0.379 | 0.479 | 0.963 | 0.365 | 0.408 | 0.596 | 0.658 | 0.393 | 0.373 | 0.808 | 0.669 | 0.818 | 0.476 |
| TLNHQYDFTFD [CSNK1A1_Y292_YF] | 0.989 | 0.543 | 0.543 | 0.57 | 0.553 | 1.07 | 0.485 | 0.507 | 0.653 | 0.705 | 0.495 | 0.6 | 1.22 | 0.701 | 0.844 | 8.5 |
| FRAPGYREVVI [TNS2_Y673_YF] | 0.55 | 0.325 | 0.422 | 0.502 | 0.466 | 0.618 | 0.409 | 0.399 | 0.446 | 0.525 | 0.416 | 0.467 | 0.52 | 1.13 | 0.942 | 0.667 |
| IFSGIYFKPES [L2HGDH_Y102_H98Y_YF] | 6.32 | 0.459 | 1.35 | 1.3 | 1.84 | 0.78 | 3.26 | 2.7 | 1.4 | 11.2 | 2.64 | 6 | 1.51 | 0.981 | 1.05 | 0.77 |
| GLRYGYGGLGG [KRTAP20-2_Y15_V17G] | 0.44 | 0.334 | 0.31 | 0.339 | 0.349 | 0.564 | 0.398 | 0.349 | 0.412 | 0.431 | 0.329 | 0.349 | 0.507 | 0.557 | 0.826 | 0.568 |

| Sequence | phosphorylation enrichment (Jak2) | phosphorylation enrichment (Fer (mouse)) | phosphorylation enrichment (EPHB2) | phosphorylation enrichment (FGFR1) | phosphorylation enrichment (EPHB1) | phosphorylation enrichment (Fes) | phosphorylation enrichment (c-Src) | phosphorylation enrichment (Fyn) | phosphorylation enrichment (FGFR3) | phosphorylation enrichment (c-Abl (mouse)) | phosphorylation enrichment (Hck) | phosphorylation enrichment (MERTK) | phosphorylation enrichment (AncSZ) | SH2 binding enrichment (SHP2-C SH2) | SH2 binding enrichment (Grb2 SH2) | SH2 binding enrichment (c-Src SH2) |
| --- | --- | --- | --- | --- | --- | --- | --- | --- | --- | --- | --- | --- | --- | --- | --- | --- |
| CENCHYPILPL [LCK_Y25_V28L] | 0.718 | 0.423 | 0.422 | 0.541 | 0.43 | 0.903 | 0.436 | 0.391 | 0.632 | 0.607 | 0.746 | 0.357 | 0.678 | 1.29 | 1.13 | 0.912 |
| LITSVYGCSRQ [TMPRSS6_Y290] | 1.24 | 0.716 | 1 | 1.04 | 0.989 | 1.25 | 1.7 | 1.57 | 1.21 | 1.27 | 1.83 | 0.545 | 1.39 | 0.628 | 0.863 | 0.511 |
| FSAPNCCYRCG [PPP2CA_Y265_Y265C] | 1.02 | 0.547 | 0.676 | 0.489 | 0.671 | 1.21 | 0.5 | 0.518 | 0.76 | 0.833 | 0.55 | 0.505 | 1 | 0.529 | 0.925 | 0.582 |
| ECKASCPGKIT [PRSS3_Y232_Y232C] | 0.402 | 0.453 | 0.335 | 0.404 | 0.336 | 0.536 | 0.359 | 0.401 | 0.44 | 0.577 | 0.351 | 0.468 | 0.461 | 0.556 | 0.791 | 0.442 |
| GDNNIYVTKII [DLG1_Y349_S347N] | 0.942 | 0.595 | 0.556 | 0.574 | 0.525 | 0.991 | 0.93 | 0.894 | 0.61 | 0.701 | 1.21 | 0.461 | 0.806 | 0.687 | 0.836 | 0.546 |
| GRFSGYKSKHG [EPHA3_Y570_C568S] | 0.438 | 0.278 | 0.256 | 0.312 | 0.34 | 0.438 | 0.364 | 0.407 | 0.392 | 0.65 | 0.361 | 0.397 | 0.39 | 0.631 | 0.857 | 0.92 |
| PYYTSYPPSPD [GDAP2_Y491] | 3.58 | 0.676 | 5.06 | 4.8 | 3.43 | 1.03 | 6.44 | 5.09 | 3.57 | 1.67 | 2.39 | 9.55 | 1.38 | 1.01 | 0.728 | 1.28 |
| LRFKQYLRNPP [SHC1_Y315] | 1.17 | 0.623 | 1.8 | 0.865 | 0.562 | 1.11 | 0.642 | 0.551 | 0.767 | 0.847 | 1.04 | 0.564 | 0.957 | 0.591 | 0.786 | 0.477 |
| LASSEYPVRRR [GALK1_Y236] | 0.475 | 0.363 | 0.472 | 0.45 | 0.542 | 0.612 | 0.572 | 0.543 | 0.496 | 0.448 | 0.514 | 0.526 | 0.62 | 0.426 | 0.512 | 0.336 |
| EQKKYSNAMKK [SCN5A_Y1495_Y1495S] | 0.437 | 0.247 | 0.333 | 0.304 | 0.326 | 0.53 | 0.262 | 0.322 | 0.459 | 0.469 | 0.467 | 0.29 | 0.498 | 0.627 | 0.868 | 0.646 |
| NRLTDYFELLL [BBS10_Y536_P539L_YF] | 1.35 | 0.534 | 0.633 | 7.17 | 0.654 | 1.31 | 0.619 | 0.622 | 5 | 0.765 | 0.509 | 0.442 | 1.36 | 1.29 | 1.33 | 0.834 |
| GMTLSYLFREL [NDUFS8_Y74_P79L] | 0.758 | 0.431 | 0.55 | 0.53 | 0.514 | 0.905 | 0.383 | 0.451 | 0.604 | 0.603 | 0.487 | 0.447 | 0.888 | 1.47 | 1.64 | 1.24 |
| FSLIHYAGIVV [MYH7_Y582_D587V] | 1.3 | 0.729 | 0.59 | 0.482 | 0.652 | 1.37 | 0.621 | 0.532 | 0.777 | 1.04 | 0.568 | 0.45 | 1.13 | 2.77 | 1.01 | 0.689 |
| GGMAEYTRLHN [EHHADH_Y4] | 0.691 | 0.359 | 0.374 | 0.382 | 0.494 | 0.597 | 0.421 | 0.32 | 0.442 | 0.532 | 0.451 | 0.378 | 0.609 | 0.742 | 0.864 | 1.29 |
| SGSFRYGSSFE [SELE_Y390_C394F] | 0.629 | 0.484 | 0.438 | 0.419 | 0.463 | 0.686 | 0.425 | 0.526 | 0.528 | 0.489 | 0.389 | 0.426 | 0.692 | 0.52 | 0.627 | 0.564 |
| LAARYYNWVSF [FLT4_Y1231] | 2.14 | 5.18 | 1.02 | 4.29 | 1.09 | 1.8 | 1 | 0.654 | 3.57 | 1.68 | 0.64 | 4.42 | 1.55 | 1.38 | 6.96 | 2.3 |
